For this assay, the target named is Thermosynechococcus elongatus BP-1 Fed2 (Thermosynechococcus elongatus BP-1). In words: SDS/PAGE.

These results are taken from article PMC6304933.

For orientation: stoichiometry N means the number of molecules, sites or subunits per partner or assembly. For “Thermosynechococcus elongatus BP-1 Fed2 (natural protein)”, the stoichiometry N worked out at 2.
